Kd data for one molecule are collected here from PMC6200766, “Fisetin targets YB-1/RSK axis independent of its effect on ERK signaling: insights from in vitro and in vivo melanoma models” (Scientific Reports, 2018).

Common to all, as to conditions: both partners purified
The target in test [1] is T1, RPS6KA1 (RSK1, 88.5 kDa) recombinant human protein, full length, HIS-tag (human, UniProt Q15418 1-735).
T1 construct: p90 ribosomal S6 kinase 1 (RSK1, RPS6KA1), human, full length, 88.5 kDa; source: bought: Life Technologies, Italy
T1 sequence (Q15418 whole entry): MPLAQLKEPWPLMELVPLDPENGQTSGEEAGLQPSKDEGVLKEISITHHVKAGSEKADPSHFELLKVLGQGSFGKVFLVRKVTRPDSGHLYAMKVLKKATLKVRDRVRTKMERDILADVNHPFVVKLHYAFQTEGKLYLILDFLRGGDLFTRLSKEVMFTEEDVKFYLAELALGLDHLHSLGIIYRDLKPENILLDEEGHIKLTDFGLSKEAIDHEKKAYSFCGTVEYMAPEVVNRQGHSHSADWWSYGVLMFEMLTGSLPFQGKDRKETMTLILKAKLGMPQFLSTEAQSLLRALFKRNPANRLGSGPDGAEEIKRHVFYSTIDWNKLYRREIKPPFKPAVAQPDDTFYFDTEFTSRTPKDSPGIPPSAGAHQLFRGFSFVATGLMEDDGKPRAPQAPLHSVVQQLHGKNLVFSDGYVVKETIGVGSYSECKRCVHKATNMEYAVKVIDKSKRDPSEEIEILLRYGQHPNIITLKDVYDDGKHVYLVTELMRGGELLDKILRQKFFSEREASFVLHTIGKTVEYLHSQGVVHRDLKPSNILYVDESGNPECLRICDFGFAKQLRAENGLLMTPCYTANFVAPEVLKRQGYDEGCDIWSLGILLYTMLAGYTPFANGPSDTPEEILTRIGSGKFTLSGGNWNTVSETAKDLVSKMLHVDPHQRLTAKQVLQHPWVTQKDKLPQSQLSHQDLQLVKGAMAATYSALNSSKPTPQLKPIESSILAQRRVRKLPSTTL
Description: SPR; Biacore T-200, 25 °C; GST-YB-1 (51-139), 60 RU, amine-coupled on a CM5 chip; RSK1 or RSK2 flowed at 100-0 nM without BSA, 30 ul/min; full kinetics; KD from ka and kd or steady state.

Test [2] deals with T2, RPS6KA3 (RSK2, 86.3 kDa) recombinant human protein, full length, HIS-tag (human, UniProt P51812 1-740).
T2 construct: p90 ribosomal S6 kinase 2 (RSK2, RPS6KA3), human, full length, 86.3 kDa; source: bought: Life Technologies, Italy
T2 sequence (P51812 whole entry): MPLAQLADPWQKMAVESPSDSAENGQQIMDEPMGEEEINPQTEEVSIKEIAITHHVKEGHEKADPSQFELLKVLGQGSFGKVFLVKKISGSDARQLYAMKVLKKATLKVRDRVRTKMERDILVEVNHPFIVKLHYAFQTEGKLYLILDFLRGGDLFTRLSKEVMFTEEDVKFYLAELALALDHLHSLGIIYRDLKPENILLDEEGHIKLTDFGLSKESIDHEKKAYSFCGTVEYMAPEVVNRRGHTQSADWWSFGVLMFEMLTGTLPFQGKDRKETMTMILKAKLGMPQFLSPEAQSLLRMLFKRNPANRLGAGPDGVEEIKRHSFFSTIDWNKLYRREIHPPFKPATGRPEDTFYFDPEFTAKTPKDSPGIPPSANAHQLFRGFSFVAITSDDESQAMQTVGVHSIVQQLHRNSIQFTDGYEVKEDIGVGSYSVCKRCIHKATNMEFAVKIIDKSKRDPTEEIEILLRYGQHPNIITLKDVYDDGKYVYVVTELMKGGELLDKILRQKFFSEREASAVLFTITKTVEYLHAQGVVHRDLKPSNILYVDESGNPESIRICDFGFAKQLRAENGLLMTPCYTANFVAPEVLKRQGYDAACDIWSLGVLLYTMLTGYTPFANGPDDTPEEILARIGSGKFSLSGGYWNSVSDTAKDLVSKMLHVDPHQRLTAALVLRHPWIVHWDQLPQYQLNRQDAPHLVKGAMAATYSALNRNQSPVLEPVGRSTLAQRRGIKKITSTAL
The test is described as above.

The target in test [3] is T2, RPS6KA3 (RSK2, 86.3 kDa) recombinant …. Description: SPR; Biacore T-200, 25 °C; GST-YB-1 (51-139) amine-coupled on a CM5 chip; RSK2 flowed at 50, 25, 12.5, 6.25, 3.125, 0 nM, 30 ul/min; 10 mM HEPES pH 7.4, 150 mM NaCl, 3 mM EDTA, 0.05% P20, 0.1% BSA; full kinetics.

B1: YB-1 human recombinant protein with GST-tag at N-terminal (51-139 aa) (domain or fragment)
chain: not shown
notes: 35 kDa including GST tag; Immobilised by amine coupling (EDC/NHS) on a CM5 chip with its GST tag; source: bought: Abnova Corporation, Taiwan; not shown: GST, N-terminal, kept
For B1, the Kd came to 246000 nM in test [1], 534 nM in test [2] and 402 nM in test [3].
